According to US11034736B2, “Anti-viral cnidarins” (priority 2014, dated 2021):

Experiments:
HIV-1IIIB gp120 [1] = target: T1, HIV-1IIIB gp120 (Human immunodeficiency virus type 1 group M subtype B, UniProt P04578)
Method: Additional ELISA studies were performed to assess the effect of monosaccharides on CNID-1 binding to gp120 and gp41. The plates were prepared with native HIV-1IIIB gp120 (Advanced Biotechnologies, Columbia, Md.) or recombinant HIV-1HxB2 gp41 (Vybion Inc., Ithaca, N.Y.), and 100 ng/well rCNID-1-Trx was added in the presence or absence of 1 mM concentrations of the following sugars: glucose, mannose, galactose, fucose, xylose, N-acetylglucosamine (GlcNAc), N-acetylgalactosamine (GalNAc), or 100 ng/well α-acid glycoprotein (to act as a carrier for sialic acid). The plates were then washed and visualized using anti-CNID-1 polyclonal antibodies as above.
Plates to test the effect of sCD4 on CNID-1 binding to gp120 were prepared with recombinant HIV-1IIIB gp120 (Immuno Diagnostics, Woburn, Mass.) at 4° C. overnight (100 ng/well) and blocked as previously described. Serial dilutions of rCNID-1-Trx were added in the presence (test plate) or absence (control plate) of 50 ng/well sCD4 (sCD4-183, 2-domain, NIH AIDS Research & Reference Reagent Program, Germantown, Md.) and incubated for 1 hr. Plates were washed and visualized as above. Plates to test for the effect of CV-N, SVN or GRFT on CNID-1 binding to gp120 were prepared with recombinant HIV-NIIIB gp120 (Immuno Diagnostics, Woburn, Mass.) at 4° C. overnight (100 ng/well) and blocked as previously described. CV-N (100 ng/well), SVN (100 ng/well) or GRFT (130 ng/well) were added (PBST was added to control wells) and incubated for 30 minutes, followed by serial dilutions of rCNID-1-Trx and further incubated for 75 minutes. The plates were then washed and visualized using anti-CNID-1 polyclonal antibodies as previously outlined.
Plates were prepared with recombinant HIV-1IIIIB gp120 (Immuno Diagnostics, Woburn, Mass.) at 4° C. overnight (100 ng/well) and blocked as previously described. rCNID-1-Trx were added: 250 ng/well for sCD4 test plate or 500 ng/well for the GRFT test plate, and PBST (50 μl/well) to the control plate; incubation done for 2 hrs. The plates were washed as before and serial dilutions of sCD4 (sCD4-183, 2-domain, NIH AIDS Research & Reference Reagent Program, Germantown, Md.) or GRFT were added; incubated for 1 hr 10 minutes. Plates were washed as before. Primary antibodies were added at 100 μl/well: mouse anti-CD4 (ProSci Inc., Poway, Calif.) at 1:1000 dilution or rabbit anti-GRFT at 1:500 dilution; incubation done for 1 hr. The plates were washed as before and peroxidase conjugated secondary antibodies (Thermo Fisher Scientific Inc., Rockford, Ill.) were added at 100 μl/well: goat anti-mouse (sCD4 plate) or goat anti-rabbit (GRFT plate) at a 1:1000 dilution; incubation for 1 hr. The plates were then washed and visualized as previously outlined.

human PBMCs = assay: Toxicity in PHA-stimulated human PBMCs, XTT cell viability; conditions: human PBMCs, XTT, 7 days
Method: The cultures were incubated for 7 days at 37° C./5% CO2. Efficacy of the compounds was evaluated by measuring the amount of reverse transcriptase in the culture supernatant and toxicity was evaluated using XTT to measure cell viability. AZT was evaluated in parallel as an assay control.

HIV-1IIIB gp120 [2] = target: T1, HIV-1IIIB gp120; conditions: ELISA
Method: High protein binding Greiner 96-well plates (VWR, Bridgeport, N.J.) were coated with 1 pmol/well of recombinant HIV-1IIIIB gp120 (Immuno Diagnostics, Woburn, Mass.) or recombinant HIV-1HXB2 gp41 (Vybion Inc., Ithaca, N.Y.) at 4° C. overnight. The wells were emptied and then blocked with 200 μl/well of 3% non-fat dry milk (Bio-Rad, Hercules, Calif.) blocking solution for 2 hrs. A control plate was incubated with blocking solution only. After washing three times with PBST, 0.5-log10 serial dilutions of rCNID-1-Trx were added to triplicate wells of gp120−, gp41− and the blocking solution control plate, and the plates were incubated for 2 hrs. The plates were washed with PBST and 100 W/well of a 1:250 dilution of polyclonal rabbit anti-CNID-1 antibody was added and allowed to incubate for 1 hr, followed by three washes with PBST. Goat anti-rabbit (H+L), peroxidase conjugated secondary antibody (Thermo Fisher Scientific Inc., Rockford, Ill.) was added to each well (100 μl/well of a 1:1000 dilution) and further incubated for 1 hr, followed by three washes with PBST. The TMB 2-component Microwell peroxidase substrate kit (KPL Inc., Gaithersburg, Md.) was used for peroxidase detection: 100 W/well, incubation for 5-10 min and the reaction was stopped by addition of 0.5M HCl (100 W/well) before reading the absorbance at 450 nm.
Briefly, 100 ng/wells of glycosylated recombinant HIV-1IIIB gp120 (Immuno Diagnostics, Woburn, Mass.) or nonglycosylated HIV-1 gp120 (MyBioSource LLC, San Diego, Calif.) was added to the wells of two 96-well plates, and incubated overnight at 4° C. The plates were washed and blocked as previously described. Serial dilutions of rCNID-1-Trx were added (100 W/well); incubation done for 2 hrs. The plates were then washed and visualized using anti-CNID-1 polyclonal antibodies as above.

B1: CNID-1: HIV-inhibitory protein from soft coral Synthecium sp.; 172 amino acids, 18,122 Da, SEQ ID NO: 1 (protein)
chain: GRATLGQLKTSTIPPVTFDVPFDGANIPQDVRFTIATVNGGKGALYNAELGESAGHTIVLESDGDHPIPGTFDPKSGRGLDYLPRGLVLFSSHNYVGNMKMYTEPDSDITADFPPGTPFGVSSAITGEGSAFQLNTGIDHTGEFEIIPPNTKRNLAGVFDNEIRSVSPTGGK
CNID-1 binding to gp120 after CV-N pre-treatment (HIV-1IIIB gp120 [1]; CV-N 100 ng/well): did not affect CNID-1 binding
CNID-1 binding to gp120 after GRFT pretreatment (HIV-1IIIB gp120 [1]; ELISA): reduced CNID-1 binding to gp120
CNID-1 binding to gp120 after pretreatment with sCD4 (HIV-1IIIB gp120 [1]; ELISA): did not block CNID-1 binding to gp120
sCD4 binding to gp120 after pre-treatment with CNID-1 (HIV-1IIIB gp120 [1]; ELISA): did not block subsequent binding of sCD4 to gp120
CNID-1 binding to gp120 after SVN pre-treatment (HIV-1IIIB gp120 [1]; SVN 100 ng/well): did not affect CNID-1 binding
GRFT binding to gp120 after pretreatment with CNID-1 (HIV-1IIIB gp120 [1]; rCNID-1 500 ng/well): did not inhibit GRFT binding to gp120
CNID-1 binding to gp120 in presence of α-acid glycoprotein (HIV-1IIIB gp120 [1]; α-acid glycoprotein as carrier of sialic acid): not inhibited
TC50 (human PBMCs): >0.5 mg/L
Binding to glycosylated versus non-glycosylated gp120 (HIV-1IIIB gp120 [2]; 100 ng/well): bound better to glycosylated gp120 as compared to non-glycosylated gp120
Binding to gp120 (HIV-1IIIB gp120 [2]; 100 ng/well gp120): specific binding to viral glycoprotein gp120 in a concentration-dependent manner
